Test results taken from patent EP4477666A1 (Max-Planck-Gesellschaft zur Förderung der Wissenschaften …, dated 2024).

T1: human Nup133 β-propeller (human, UniProt Q8WUM0 67-514, limits assumed)
T1 construct: domain: β-propeller; also called human Nup133 beta propeller; human propeller
T1 sequence (looked up): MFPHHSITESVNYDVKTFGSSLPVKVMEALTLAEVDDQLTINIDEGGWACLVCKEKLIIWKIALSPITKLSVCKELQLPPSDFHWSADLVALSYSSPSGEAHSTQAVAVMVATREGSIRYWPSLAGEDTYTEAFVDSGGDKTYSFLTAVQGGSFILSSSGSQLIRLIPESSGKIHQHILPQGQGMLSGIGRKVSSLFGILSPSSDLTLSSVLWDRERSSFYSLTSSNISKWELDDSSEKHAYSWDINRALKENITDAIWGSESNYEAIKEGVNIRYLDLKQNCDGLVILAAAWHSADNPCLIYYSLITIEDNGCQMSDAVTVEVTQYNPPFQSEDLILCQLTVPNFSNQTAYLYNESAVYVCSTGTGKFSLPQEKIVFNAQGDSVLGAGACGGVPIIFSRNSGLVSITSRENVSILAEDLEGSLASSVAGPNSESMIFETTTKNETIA

T2: human Nup133 in nuclear pore complexes of HeLa cells (human, UniProt Q8WUM0 1-1156)
T2 construct: whole, on cells; Endogenous protein inside permeabilized HeLa cells, as part of assembled NPCs; not on the cell surface; also called human NPCs
T2 sequence (looked up): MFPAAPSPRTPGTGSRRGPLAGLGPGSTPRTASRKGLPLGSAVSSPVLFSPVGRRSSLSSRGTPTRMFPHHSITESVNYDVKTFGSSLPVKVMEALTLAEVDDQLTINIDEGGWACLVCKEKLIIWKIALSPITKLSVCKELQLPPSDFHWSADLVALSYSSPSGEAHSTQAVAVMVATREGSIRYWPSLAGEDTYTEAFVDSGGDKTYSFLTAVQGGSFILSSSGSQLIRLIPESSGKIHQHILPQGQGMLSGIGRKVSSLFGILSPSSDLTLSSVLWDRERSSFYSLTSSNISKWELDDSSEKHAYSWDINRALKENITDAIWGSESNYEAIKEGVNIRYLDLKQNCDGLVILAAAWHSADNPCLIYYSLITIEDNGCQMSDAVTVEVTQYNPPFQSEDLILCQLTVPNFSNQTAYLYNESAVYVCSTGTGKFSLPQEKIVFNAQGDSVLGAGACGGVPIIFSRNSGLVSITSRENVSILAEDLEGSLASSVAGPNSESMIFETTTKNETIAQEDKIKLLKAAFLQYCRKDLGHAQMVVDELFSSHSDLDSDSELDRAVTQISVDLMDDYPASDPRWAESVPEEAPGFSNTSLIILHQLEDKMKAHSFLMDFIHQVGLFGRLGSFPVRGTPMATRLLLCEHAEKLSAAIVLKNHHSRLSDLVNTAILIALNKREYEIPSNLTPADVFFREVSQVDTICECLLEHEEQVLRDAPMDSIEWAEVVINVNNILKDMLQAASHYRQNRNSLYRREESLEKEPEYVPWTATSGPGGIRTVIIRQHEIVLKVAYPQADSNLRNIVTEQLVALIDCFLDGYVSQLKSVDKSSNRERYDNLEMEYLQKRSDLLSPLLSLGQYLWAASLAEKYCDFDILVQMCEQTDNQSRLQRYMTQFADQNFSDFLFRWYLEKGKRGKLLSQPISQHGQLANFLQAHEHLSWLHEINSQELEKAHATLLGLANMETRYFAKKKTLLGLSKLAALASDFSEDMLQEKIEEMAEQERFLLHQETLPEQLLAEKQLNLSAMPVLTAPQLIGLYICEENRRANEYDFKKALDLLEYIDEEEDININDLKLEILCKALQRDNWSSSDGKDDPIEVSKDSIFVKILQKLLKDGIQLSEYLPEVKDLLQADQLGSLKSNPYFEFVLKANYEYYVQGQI

T3: human Nup358 (human, UniProt P49792 1-145)
T3 construct: The stainings were on whole NPCs of HeLa cells
T3 sequence (looked up): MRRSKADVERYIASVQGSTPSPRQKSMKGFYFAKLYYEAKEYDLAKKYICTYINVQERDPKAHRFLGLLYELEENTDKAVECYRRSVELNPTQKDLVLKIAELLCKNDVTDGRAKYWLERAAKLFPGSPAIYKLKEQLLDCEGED


Key:
[1] = target: T4, Xenopus Nup133 β-propeller (Xenopus); experiment: BLI (Octet Red96), biotinylated VHH on streptavidin sensors, 40 nM propeller in solution
T4 construct: domain: β-propeller; also called Xenopus Nup133 beta propeller; Xenopus propeller

[2] = target: T1, human Nup133 β-propeller; experiment: as above
[3] = target: T2, human Nup133 in nuclear pore complexes …; experiment: immunofluorescence of HeLa cells with fluorophore-labelled VHH (Figures 1 and 2)
[4] = target: T3, human Nup358; experiment: Table 1, target and cross-reactivity (immunofluorescence, Figure 1)

Binder	Kd [1] [nM]	Kd [2] [nM]	binding result [3]	binding result [4]
KG1D08, biotinylated, reduced form (structural cysteines not disulfide-bonded) (VHH, Biotin-PEG11-maleimide on the two additional cysteines at N- and C-terminus; structural cysteines reduced ; Two additional ectopic cysteines at the N- and C-terminus, not in the letters, each carry Biotin-PEG11-maleimide. Struct [CUT], Expressed in the cytoplasm of E. coli NEB Express; also called reduced KG1D08; not shown: The short N- and C-terminal extensions that carry the two ectopic, biotinylated cysteines) VHH: QVQLVESGGGLVQAGGSLRLSCAASGRSFRGNIMAWFRQTPGKERLFVASITGSGYTSYENSVKGRFTISRDSARDTVDLQMTTLAPEDTAVYYCAGRFRGGHNRMPDAYEYWGQGTQVTVSS	< 0.01	~2		
KG1D08 (VHH, also called anti-Nup133 VHH KG1D08) VHH: QVQLVESGGGLVQAGGSLRLSCAASGRSFRGNIMAWFRQTPGKERLFVASITGSGYTSYENSVKGRFTISRDSARDTVDLQMTTLAPEDTAVYYCAGRFRGGHNRMPDAYEYWGQGTQVTVSS			binds	
KG1D08, biotinylated, post-production disulfide-bridged form (VHH, Biotin-PEG11-maleimide on the two additional cysteines at N- and C-terminus; structural cysteines quantitatively oxidized to the intramolecular disulfide bond ; Two additional ectopic cysteines at the N- and C-terminus, not in the letters, each carry Biotin-PEG11-maleimide. Struct [CUT], Same preparation as the reduced form, then treated with 2 mM GSSG and 1.5 µM each DsbA, DsbC, DsbG for 5 minutes at 52°C (45 minutes heat up); also called KG1D08 with post-production disulfide-bonding; disulfide-stabilized VHH; not shown: The short N- and C-terminal extensions that carry the two ectopic, biotinylated cysteines) VHH: QVQLVESGGGLVQAGGSLRLSCAASGRSFRGNIMAWFRQTPGKERLFVASITGSGYTSYENSVKGRFTISRDSARDTVDLQMTTLAPEDTAVYYCAGRFRGGHNRMPDAYEYWGQGTQVTVSS	< 0.01	~2		
xhNup358-Nb2t (VHH, For staining the VHHs carried two ectopic cysteines (N- and C-termini) labelled with fluorophore maleimide) VHH: QVQLVESGGGLVQPGGSLRLSCAASGRPLSDYAMGWFRQAPGKEREFVAAISWKGGETFYAGSVKGRFTISRDDAKNSLYLQMNNLKLEDTAEYSCAAVLGSPHYSGTHYYPAEYDYWGQGTQVTVSS				binds
